# Measured values taken from patent US20150011730A1 (UNIVERSITY OF SOUTH CAROLINA, published 2015).
# Where two headings read alike, the source gives them in different places. Non-standard residues stand in square brackets, D forms with d. No end group written: not given here. *: point of attachment. X1 = 1‑(3,5-dichlorophenyl)‑5‑methyl‑1H‑1,2,4‑triazole‑3‑carbonyl, Cc1nc(C(=O)*)nn1-c1cc(Cl)cc(Cl)c1; Pyrazole N‑cap (R1 OCH3, R2 H, R3 H, R4 CH3, W N, X N, Y C, Z C) = not defined here; Pyrazole N‑cap (R1 Cl, R2 H, R3 Cl, R4 CH3, W N, X N, Y C, Z C) = not defined here; Pyrazole N‑cap (R1 Cl, R2 H, R3 H, R4 CH3, W N, X N, Y C, Z C) = not defined here; Pyrazole N‑cap (R1 F, R2 H, R3 H, R4 CH3, W N, X N, Y C, Z C) = not defined here; Pyrazole N‑cap (R1 H, R2 H, R3 H, R4 CH3, W N, X N, Y C, Z C) = not defined here; benzoic acid Scaffold III (R1 H, R2 CHEM-US-00025 C6H13NO) = not defined here; benzoic acid Scaffold III (R1 H, R2 CHEM-US-00026 C5H12N2) = not defined here; 3‑phenoxybenzylamide = c1ccc(Oc2cccc(CN*)c2)cc1; Ala(2-furyl) = N[C@@H](Cc1ccco1)C(=O)O; Cha = N[C@@H](CC1CCCCC1)C(=O)O; β3hL = CC(C)C[C@H](N)CC(=O)O
# Tests used:
# [1] = target: T1, CDK4/cyclin D1 (as used in the binding assay) (UniProt P11802 1-303; P24385 1-295)
# T1 construct: kept apart from the GST-tagged kinase-assay complex m2; also called CDK4/D1
# [2] = target: T2, CDK4/Cyclin D1, full-length recombinant, N-terminal GST tag on both proteins (UniProt P11802 2-303; P24385 1-295); experiment: cell-based or functional assay
# [3] = target: T3, CDK2/Cyclin A2, full-length recombinant, N-terminal GST tag on both proteins (UniProt P24941 1-298; P20248 1-432); experiment: cell-based or functional assay
# [4] = target: T4, CDK2/cyclin A (as used in the binding assay) (UniProt P24941 1-298; P20248 1-432)
# [5] = target: T4, CDK2/cyclin A (as used in the binding …); experiment: binding assay
# [6] = target: T4, CDK2/cyclin A (as used in the binding …); experiment: FP binding assay
# [7] = target: T1, CDK4/cyclin D1 (as used in the binding …); experiment: FP binding assay
# [8] = target: T1, CDK4/cyclin D1 (as used in the binding …); remark: listed apart in the source
# [9] = target: T3, CDK2/Cyclin A2, full-length …; experiment: cell-based or functional assay; remark: listed apart in the source
# [10] = target: CDK2/E (UniProt P24941 1-298; P24864 1-410); experiment: cell-based or functional assay
# [11] = target: T2, CDK4/Cyclin D1, full-length …; experiment: cell-based or functional assay; remark: listed apart in the source
# T2 sequence (P11802 2-303, chain 1 of 2): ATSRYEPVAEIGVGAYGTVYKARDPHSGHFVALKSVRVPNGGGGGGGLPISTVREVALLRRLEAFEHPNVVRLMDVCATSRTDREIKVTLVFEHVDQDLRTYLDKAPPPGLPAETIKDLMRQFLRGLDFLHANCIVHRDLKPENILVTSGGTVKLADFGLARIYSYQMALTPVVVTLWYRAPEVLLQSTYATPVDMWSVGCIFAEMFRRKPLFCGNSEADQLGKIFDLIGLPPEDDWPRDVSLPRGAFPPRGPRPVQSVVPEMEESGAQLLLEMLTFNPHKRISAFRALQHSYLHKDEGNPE
# T2 sequence (P24385 whole entry, chain 2 of 2): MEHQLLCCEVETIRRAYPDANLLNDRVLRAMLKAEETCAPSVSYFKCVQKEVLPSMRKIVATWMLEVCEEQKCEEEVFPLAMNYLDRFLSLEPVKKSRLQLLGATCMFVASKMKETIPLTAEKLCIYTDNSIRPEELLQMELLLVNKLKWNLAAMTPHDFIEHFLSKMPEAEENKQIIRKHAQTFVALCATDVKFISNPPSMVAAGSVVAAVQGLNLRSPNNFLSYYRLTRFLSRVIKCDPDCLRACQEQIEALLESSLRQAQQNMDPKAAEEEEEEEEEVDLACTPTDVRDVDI
# T1 sequence (P11802 whole entry, chain 1 of 2): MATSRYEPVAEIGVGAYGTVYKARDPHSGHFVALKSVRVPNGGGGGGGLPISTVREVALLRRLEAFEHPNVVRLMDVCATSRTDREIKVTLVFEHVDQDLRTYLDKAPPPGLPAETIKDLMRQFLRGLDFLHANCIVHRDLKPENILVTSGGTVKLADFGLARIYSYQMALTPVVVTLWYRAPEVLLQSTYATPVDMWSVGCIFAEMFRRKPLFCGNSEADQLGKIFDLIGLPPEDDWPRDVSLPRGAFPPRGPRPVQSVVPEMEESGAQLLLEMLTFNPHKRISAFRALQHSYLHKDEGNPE
# T1 sequence (P24385 whole entry, chain 2 of 2): as the sequence (P24385 whole entry, chain 2 of 2) above
binder,measurement,setting,value
"RRLNF (pfF at position 5 = p-fluorophenylalanine; C-terminal amide, also called SCCP 540) [RRLNpfF]",IC50,[1],8 µM
PAKRRLFG-NH2,"IC50, kinase assay",[2],6.7 µM
HAKRRLIA (HELM PEPTIDE1{H.A.K.R.R.L.I.[O=C([C@H](Cc1cccnc1)N[*:1])[*:2]].[am]}$$$$V2.0; N-terminus assumed; SMILES CC[C@H](C)[C@H](NC(=O)[C@H](CC(C)C)NC(=O)[C@H](CCCNC(=N)N)NC(=O)[C@H](CCCNC(=N)N)NC(=O)[C@H](CCCCN)NC(=O)[C@H](C)NC(=O)[C@@H](N)Cc1c[nH]cn1)C(=O)N[C@@H](Cc1cccnc1)C(N)=O) [HAKRRLIX7],"IC50, kinase assay",[3],29 µM
"SAKRRLAG (HELM PEPTIDE1{S.A.K.R.R.[CC(C)C[C@@H](CC(=O)[*:2])N[*:1]].[O=C([C@H](Cc1ccsc1)N[*:1])[*:2]].G}$$$$V2.0; N-terminus assumed; SMILES CC(C)C[C@@H](CC(=O)N[C@@H](Cc1ccsc1)C(=O)NCC(=O)O)NC(=O)[C@H](CCCNC(=N)N)NC(=O)[C@H](CCCNC(=N)N)NC(=O)[C@H](CCCCN)NC(=O)[C@H](C)NC(=O)[C@@H](N)CO, C-terminal free acid (-OH); also called SCCP 5813) [SAKRR{bLeu}3TAG-OH]",IC50,[4],0.31 µM
"X1-RLIF (also called SCCP 5773; 3,5-dichlorophenyl triazole) [1-(3,5-dichlorophenyl)-5-methyl-1H-1,2,4-triazole-3-carbonyl-RLIF]",IC50,[5],12 µM
same,IC50,[6],4 µM
same,IC50,[7],27 µM
"HAKRRLI[Cha]-NH2 (not fully specified, also called HAKRRLIX6; HAKRRLI{CHA}) [HAKRRLIR6]","IC50, kinase assay",[3],58 µM
same,IC50,[4],0.25 µM
same,IC50,[1],0.26 µM
"{benzoic acid Scaffold III (R1 H, R2 CHEM-US-00025 C6H13NO)}-RLIF (not fully specified (C-terminus); reading uncertain) [SCCP 5851 (benzoic acid N-cap-RLIF)]",fold enhancement of activity vs unsubstituted benzoic acid,[8],26 fold
Arg-Arg-[β3hL]-{3‑phenoxybenzylamide} [Arg-Arg-β-homoleucyl-3-phenoxybenzylamid],"IC50, kinase assay",[9],> 100 µM
same,"IC50, kinase assay",[2],60 µM
same,Potency ratio,[2],20.7 ratio
"{Pyrazole N‑cap (R1 OCH3, R2 H, R3 H, R4 CH3, W N, X N, Y C, Z C)}-RLIF (reading uncertain; also: cap structure given only by scaffold parameters) [SCCP 5766 (Pyrazole N-cap ligated to RLIF)]",IC50,[6],64.1 µM
HAKRRLIA (HELM PEPTIDE1{H.A.K.R.R.L.I.[O=C([C@H](Cc1ccsc1)N[*:1])[*:2]].[am]}$$$$V2.0; N-terminus assumed; SMILES CC[C@H](C)[C@H](NC(=O)[C@H](CC(C)C)NC(=O)[C@H](CCCNC(=N)N)NC(=O)[C@H](CCCNC(=N)N)NC(=O)[C@H](CCCCN)NC(=O)[C@H](C)NC(=O)[C@@H](N)Cc1c[nH]cn1)C(=O)N[C@@H](Cc1ccsc1)C(N)=O) [HAKRRLIX3],"IC50, kinase assay",[3],25 µM
"RKLIF (dimethyllysine at position 2 (lysine with the epsilon amino group methylated), also called SCCP 5918) [R(dimethyllys)LIF]",IC50,[4],5.4 µM
same,IC50,[1],72.2 µM
HAKRRLI[2‑thienylalanine]-NH2 [HAKRRLIX2],"IC50, kinase assay",[3],3.6 µM
"{Pyrazole N‑cap (R1 Cl, R2 H, R3 Cl, R4 CH3, W N, X N, Y C, Z C)}-RLIF (reading uncertain; also: cap structure given only by scaffold parameters) [SCCP 5763 (Pyrazole N-cap ligated to RLIF)]",IC50,[6],21.8 µM
"RXLIF (Cit at position 2 = citrulline; C-terminal amide, also called SCCP 5831) [RCitLIF]",IC50,[1],46.5 µM
HAKRRLI[Ala(2-furyl)]-NH2 [HAKRRLIX1],"IC50, kinase assay",[3],6.1 µM
same,"IC50, kinase assay",[10],1.3 µM
"{Triazole N‑cap (R1 H, R2 H, R3 H, R4 H, W N, X N, Y N, Z C)}-RLIF (also: cap structure given only by scaffold parameters) [SCCP 5843 (Triazole N-cap ligated to RLIF)]",IC50,[6],16.2 µM
same,IC50,[7],48.7 µM
SAKRALFGM-NH2,"IC50, kinase assay",[2],68 µM
HAKTRLIF-NH2,"IC50, kinase assay",[9],50 µM
same,Potency ratio vs native HAKRRLIF,[9],38.5 ratio
same,"IC50, kinase assay",[2],25 µM
same,Potency ratio vs native HAKRRLIF,[2],16.7 ratio
"XRLIF (Cit at position 1 = citrulline; C-terminal amide, also called SCCP 5812) [CitRLIF]","IC50, kinase assay",[2],179 µM
same,IC50,[1],72.3 µM
"{benzoic acid Scaffold III (R1 H, R2 CHEM-US-00026 C5H12N2)}-RLIF (reading uncertain; also: cap structure given only by scaffold parameters) [SCCP 5850 (benzoic acid N-cap-RLIF)]",fold enhancement of activity vs unsubstituted benzoic acid,[8],9 fold
"{Pyrazole N‑cap (R1 H, R2 H, R3 H, R4 CH3, W N, X N, Y C, Z C)}-RLIF (reading uncertain; also: cap structure given only by scaffold parameters) [SCCP 5762 (Pyrazole N-cap ligated to RLIF)]",IC50,[7],53.8 µM
"{Triazole N‑cap, 4‑chlorophenyl triazole (R1 H, R2 Cl, R3 H, R4 CH3, W N, X N, Y N, Z C)}-RLIF (also: cap structure given only by scaffold parameters, also called 4-chlorophenyl triazole; 4-chloro phenyl triazole) [SCCP 5774 (Triazole N-cap ligated to RLIF)]",IC50,[5],25 µM
same,IC50,[6],11.5 µM
same,IC50,[7],11.3 µM
"{Pyrazole N‑cap (R1 Cl, R2 H, R3 H, R4 CH3, W N, X N, Y C, Z C)}-RLIF (reading uncertain; also: cap structure given only by scaffold parameters) [SCCP 5764 (Pyrazole N-cap ligated to RLIF)]",IC50,[6],11.9 µM
same,IC50,[7],45 µM
HAKRRLIA (HELM PEPTIDE1{H.A.K.R.R.L.I.[O=C([C@H](CC1CCC1)N[*:1])[*:2]].[am]}$$$$V2.0; N-terminus assumed; SMILES CC[C@H](C)[C@H](NC(=O)[C@H](CC(C)C)NC(=O)[C@H](CCCNC(=N)N)NC(=O)[C@H](CCCNC(=N)N)NC(=O)[C@H](CCCCN)NC(=O)[C@H](C)NC(=O)[C@@H](N)Cc1c[nH]cn1)C(=O)N[C@@H](CC1CCC1)C(N)=O) [HAKRRLIX4],"IC50, kinase assay",[3],25 µM
SAKRNLFGM-NH2,"IC50, kinase assay",[2],146 µM
"{Pyrazole N‑cap (R1 F, R2 H, R3 H, R4 CH3, W N, X N, Y C, Z C)}-RLIF (reading uncertain; also: cap structure given only by scaffold parameters) [SCCP 5771 (Pyrazole N-cap ligated to RLIF)]",IC50,[6],29.6 µM
same,IC50,[7],69.6 µM
"SAKRRLXG (HELM PEPTIDE1{S.A.K.R.R.L.[O=C([C@H](Cc1ccsc1)N[*:1])[*:2]].G}$$$$V2.0; N-terminus assumed; SMILES CC(C)C[C@H](NC(=O)[C@H](CCCNC(=N)N)NC(=O)[C@H](CCCNC(=N)N)NC(=O)[C@H](CCCCN)NC(=O)[C@H](C)NC(=O)[C@@H](N)CO)C(=O)N[C@@H](Cc1ccsc1)C(=O)NCC(=O)O, C-terminal free acid (-OH); also called SCCP 5814) [SAKRRL3TA G-OH]",IC50,[4],0.43 µM
HAKRRLIA (HELM PEPTIDE1{H.A.K.R.R.L.I.[O=C([C@H](CC1CCCC1)N[*:1])[*:2]].[am]}$$$$V2.0; N-terminus assumed; SMILES CC[C@H](C)[C@H](NC(=O)[C@H](CC(C)C)NC(=O)[C@H](CCCNC(=N)N)NC(=O)[C@H](CCCNC(=N)N)NC(=O)[C@H](CCCCN)NC(=O)[C@H](C)NC(=O)[C@@H](N)Cc1c[nH]cn1)C(=O)N[C@@H](CC1CCCC1)C(N)=O) [HAKRRLIX5],"IC50, kinase assay",[3],20 µM
same,"IC50, kinase assay",[11],90 µM
{2‑(3-fluorophenyl)‑1H‑imidazole‑4‑carbonyl}-RLIF (also called 2-(3-fluorophenyl)-1H-imidazole-4-carboxamide) [SCCP 5852 (Imidazole N-cap ligated to RLIF)],IC50,[6],34.3 µM
same,IC50,[7],67 µM
